Data from patent US11278600B2, “Human alpha-galactosidase variants” (Codexis, Inc., priority 2014, dated 2022).

Experiments:
Type in all cases: biochemical
[1] = HTP-analysis of yeast culture supernatants, no challenge (MUGal hydrolysis); conditions: activity of the variant/activity of Rd4BB (SEQ ID NO: 15)
In short: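 GLA variants expressed in yeast INVSc1, secreted into SD-Ura broth over 66-84 h at 30° C; clarified supernatants tested without challenge. Supernatant mixed with McIlvaine buffer pH 4.8 and 2 mM MUGal (citrate/KCl, pH 4.6), 37° C for 30-180 min, carbonate-quenched, fluorescence Ex 355/Em 448 nm.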

[2] = HTP-analysis of supernatants pretreated with base (MUGal hydrolysis); conditions: activity of the variant/activity of Rd4BB (SEQ ID NO: 15); challenge at pH 9.65
In short: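 GLA variants were secreted by transformed INVSc1 yeast grown 66-84 h at 30° C. Supernatants were exposed to neutral-to-basic buffers (pH 7.0-9.7) at 37° C for 1-18 h, then assayed with MUGal in acidic citrate/McIlvaine buffer, with fluorescence read after quenching.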

[3] = HTP-analysis of supernatants pretreated with acid (MUGal hydrolysis); conditions: activity of the variant/activity of Rd4BB (SEQ ID NO: 15); challenge at pH 3.7
In short: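 Yeast INVSc1 supernatant, GLA variants; acid challenge: McIlvaine pH 3.3-4.3, 37° C., 1-3 h. Assay: MUGal in McIlvaine pH 4.8 plus citrate pH 4.3, 37° C., 30-180 min, Na2CO3 stop, Ex 355/Em 448 nm.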

Molecule | Relative Activity of GLA Variants After No Challenge (NC) [1] | Relative Activity of GLA Variants After Challenge at pH 9.65 [2] | Relative Activity of GLA Variants After Challenge at pH 3.7 [3]
403 (protein, Synthetic Polypeptide sequence of Variant No. 403 of mature Human GLA) LDNGLARTPTMGWLHWERFMCNLDCQEEPDSCISEKLFMEMAERMVSEGWKDAGYEYLCIDDCWMAPQRDSEGRLQADPQRFPHGIRQLANYVHSKGLKLGIYADVGNKTCAGFPGSFGYYDIDAQTFADWGVDLLKFDGCYCDSLENLADGYKHMSLALNRTGRGIVYSCEWPLYMWPFQKPNYTEIRQYCNHWRNFADIDDSWKSIKSILDWTSRNQERIVDVAGPGGWNDPDMLVIGNFGLSWDQQVTQMALWAIMAAPLFMSNDLRHISPQAKALLQDKDVIAINQDPLGKQGYQLRKGDNFEVWERPLSGDAWAVAIINRQEIGGPRSYTIPVASLGKGVACNPACFITQLLPVKRQLGFYNWTSRLKSHINPTGTVLLQLENTMQMSLKDLL | + (0.5 to 1.5 relative activity over Rd4BB (SEQ ID NO: 15)) | + (0.5 to 1.5 relative activity over Rd4BB (SEQ ID NO: 15)) | + (0.5 to 1.5 relative activity over Rd4BB (SEQ ID NO: 15))
404 (protein, Synthetic Polypeptide sequence of Variant No. 404 of mature Human GLA) LDNGLARTPTMGWLHWERFMCNLDCQEEPDSCISEKLFMEMAERMVSEGWKDAGYEYLCIDDCWMAPQRDSEGRLQADPQRFPHGIRQLANYVHSKGLKLGIYADVGNKTCAGFPGSFGYYDIDAQTFADWGVDLLKFDGCYCDSLENLADGYKHMSLALNRTGRFIVYSCEWPLYMWPFQKPNYTEIRQYCNHWRNFADIDDSWKSIKSILDWTSRNQERIVDVAGPGGWNDPDMLVIGNFGLSWDQQVTQMALWAIMAAPLFMSNDLRHISPQAKALLQDKDVIAINQDPLGKQGYQLRKGDNFEVWERPLSGDAWAVAIINRQEIGGPRSYTIPVASLGKGVACNPACFITQLLPVKRQLGFYNWTSRLKSHINPTGTVLLQLENTMQMSLKDLL | + (0.5 to 1.5 relative activity over Rd4BB (SEQ ID NO: 15)) | − (<0.5 relative activity over Rd4BB (SEQ ID NO: 15)) | + (0.5 to 1.5 relative activity over Rd4BB (SEQ ID NO: 15))
405 (protein, Synthetic Polypeptide sequence of Variant No. 405 of mature Human GLA) LDNGLARTPTMGWLHWERFMCNLDCQEEPDSCISEKLFMEMAERMVSEGWKDAGYEYLCIDDCWMAPQRDSEGRLQADPQRFPHGIRQLANYVHSKGLKLGIYADVGNKTCAGFPGSFGYYDIDAQTFADWGVDLLKFDGCYCDSLENLADGYKHMSEALNRTGRSIVYSCEWPLYMWPFQKPNYTEIRQYCNHWRNFADIDDSWKSIKSILDWTSRNQERIVDVAGPGGWNDPDMLVIGNFGLSWDQQVTQMALWAIMAAPLFMSNDLRHISPQAKALLQDKDVIAINQDPLGKQGYQLRKGDNFEVWERPLSGDAWAVAIINRQEIGGPRSYTIPVASLGKGVACNPACFITQLLPVKRQLGFYNWTSRLKSHINPTGTVLLQLENTMQMSLKDLL | + (0.5 to 1.5 relative activity over Rd4BB (SEQ ID NO: 15)) | + (0.5 to 1.5 relative activity over Rd4BB (SEQ ID NO: 15)) | ++ (>1.5 to 2.5 relative activity over Rd4BB (SEQ ID NO: 15))
406 (protein, Synthetic Polypeptide sequence of Variant No. 406 of mature Human GLA) LDNGLARTPTMGWLHWERFMCNLDCQEEPDSCISEKLFMEMAERMVSEGWKDAGYEYLCIDDCWMAPQRDSEGRLQADPQRFPHGIRQLANYVHSKGLKLGIYADVGNKTCAGFPGSFGYYDIDAQTFADWGVDLLKFDGCYCDSLENLADGYKHMSLALNKTGRSIVYSCEWPLYMWPFQKPNYTEIRQYCNHWRNFADIDDSWKSIKSILDWTSRNQERIVDVAGPGGWNDPDMLVIGNFGLSWDQQVTQMALWAIMAAPLFMSNDLRHISPQAKALLQDKDVIAINQDPLGKQGYQLRKGDNFEVWERPLSGDAWAVAIINRQEIGGPRSYTIPVASLGKGVACNPACFITQLLPVKRQLGFYNWTSRLKSHINPTGTVLLQLENTMQMSLKDLL | + (0.5 to 1.5 relative activity over Rd4BB (SEQ ID NO: 15)) | + (0.5 to 1.5 relative activity over Rd4BB (SEQ ID NO: 15)) | + (0.5 to 1.5 relative activity over Rd4BB (SEQ ID NO: 15))
407 (protein, Synthetic Polypeptide sequence of Variant No. 407 of mature Human GLA) LDNGLARTPTMGWLHWERFMCNLDCQEEPDSCISEKLFMEMAERMVSEGWKDAGYEYLCIDDCWMAPQRDSEGRLQADPQRFPHGIRQLANYVHSKGLKLGIYADVGNKTCAGFPGSFGYYDIDAQTFADWGVDLLKFDGCYCDSLENLADGYKHMSHALNRTGRSIVYSCEWPLYMWPFQKPNYTEIRQYCNHWRNFADIDDSWKSIKSILDWTSRNQERIVDVAGPGGWNDPDMLVIGNFGLSWDQQVTQMALWAIMAAPLFMSNDLRHISPQAKALLQDKDVIAINQDPLGKQGYQLRKGDNFEVWERPLSGDAWAVAIINRQEIGGPRSYTIPVASLGKGVACNPACFITQLLPVKRQLGFYNWTSRLKSHINPTGTVLLQLENTMQMSLKDLL | + (0.5 to 1.5 relative activity over Rd4BB (SEQ ID NO: 15)) | − (<0.5 relative activity over Rd4BB (SEQ ID NO: 15)) | + (0.5 to 1.5 relative activity over Rd4BB (SEQ ID NO: 15))
362 (protein, Synthetic Polypeptide sequence of Variant No. 362 of mature Human GLA) LDNGLARTPTMGWLHWERFMCNLDCQEEPDSCISEKLFMEMAECMVSEGWKDAGYEYLCIDDCWMAPQRDSEGRLQADPQRFPHGIRQLANYVHSKGLKLGIYADVGNKTCAGFPGSFGYYDIDAQTFADWGVDLLKFDGCYCDSLENLADGYKHMSLALNRTGRSIVYSCEWPLYMWPFQKPNYTEIRQYCNHWRNFADIDDSWKSIKSILDWTSRNQERIVDVAGPGGWNDPDMLVIGNFGLSWDQQVTQMALWAIMAAPLFMSNDLRHISPQAKALLQDKDVIAINQDPLGKQGYQLRKGDNFEVWERPLSGDAWAVAIINRQEIGGPRSYTIPVASLGKGVACNPACFITQLLPVKRQLGFYNWTSRLKSHINPTGTVLLQLENTMQMSLKDLL | + (0.5 to 1.5 relative activity over Rd4BB (SEQ ID NO: 15)) | + (0.5 to 1.5 relative activity over Rd4BB (SEQ ID NO: 15)) | + (0.5 to 1.5 relative activity over Rd4BB (SEQ ID NO: 15))
408 (protein, Synthetic Polypeptide sequence of Variant No. 408 of mature Human GLA) LDNGLARTPTMGWLHWERFMCNLDCQEEPDSCISEKLFMEMAERMVSEGWKDAGYEYLCIDDCWMAPQRDSEGRLQADPQRFPHGIRQLANYVHSKGLKLGIYADVGNKTCAGFPGSFGYYDIDAQTFADWGVDLLKFDGCYCDSLENLADGYKHMSLALNRTGRRIVYSCEWPLYMWPFQKPNYTEIRQYCNHWRNFADIDDSWKSIKSILDWTSRNQERIVDVAGPGGWNDPDMLVIGNFGLSWDQQVTQMALWAIMAAPLFMSNDLRHISPQAKALLQDKDVIAINQDPLGKQGYQLRKGDNFEVWERPLSGDAWAVAIINRQEIGGPRSYTIPVASLGKGVACNPACFITQLLPVKRQLGFYNWTSRLKSHINPTGTVLLQLENTMQMSLKDLL | + (0.5 to 1.5 relative activity over Rd4BB (SEQ ID NO: 15)) | + (0.5 to 1.5 relative activity over Rd4BB (SEQ ID NO: 15)) | + (0.5 to 1.5 relative activity over Rd4BB (SEQ ID NO: 15))
409 (protein, Synthetic Polypeptide sequence of Variant No. 409 of mature Human GLA) LDNGLARTPTMGWLHWERFMCNLDCQEEPDSCISEKLFMEMAERMVSEGWKDAGYEYLCIDDCWMAPQRDSEGRLQADPQRFPHGIRQLANYVHSKGLKLGIYADVGNKTCAGFPGSFGYYDIDAQTFADWGVDLLKFDGCYCDSLENLADGYKHMSLALNRTGHSIVYSCEWPLYMWPFQKPNYTEIRQYCNHWRNFADIDDSWKSIKSILDWTSRNQERIVDVAGPGGWNDPDMLVIGNFGLSWDQQVTQMALWAIMAAPLFMSNDLRHISPQAKALLQDKDVIAINQDPLGKQGYQLRKGDNFEVWERPLSGDAWAVAIINRQEIGGPRSYTIPVASLGKGVACNPACFITQLLPVKRQLGFYNWTSRLKSHINPTGTVLLQLENTMQMSLKDLL | + (0.5 to 1.5 relative activity over Rd4BB (SEQ ID NO: 15)) | − (<0.5 relative activity over Rd4BB (SEQ ID NO: 15)) | + (0.5 to 1.5 relative activity over Rd4BB (SEQ ID NO: 15))
